From paper PMC4344312

B1: human glucagon like peptide-1 receptor (hGLP-1R): N63, 82, 115L (protein)
parent chain: MAGAPGPLRLALLLLGMVGRAGPRPQGATVSLWETVQKWREYRRQCQRSLTEDPPPATDLFCNRTFDEYACWPDGEPGSFVNVSCPWYLPWASSVPQGHVYRFCTAEGLWLQKDNSSLPWRDLSECEESKRGERSSPEEQLLFLYIIYTVGYALSFSALVIASAILLGFRHLHCTRNYIHLNLFASFILRALSVFIKDAALKWMYSTAAQQHQWDGLLSYQDSLSCRLVFLLMQYCVAANYYWLLVEGVYLYTLLAFSVLSEQWIFRLYVSIGWGVPLLFVVPWGIVKYLYEDEGCWTRNSNMNYWLIIRLPILFAIGVNFLIFVRVICIVVSKLKANLMCKTDIKCRLAKSTLTLIPLLGTHEVIFAFVMDEHARGTLRFIKLFTELSFTSFQGLMVAILYCFVNNEVQLEFRKSWERWRLEHLHIQRDSSMKPLKCPTSSLSSGATAGSSMYTATCQASCS
B2: human glucagon like peptide-1 receptor (hGLP-1R): tunicamycin (protein)
parent chain: B1 parent chain

Key:
[1] = cell surface ELISA, anti-hGLP-1R, unpermeabilised cells; settings: glycan lost; control: SP-VSVG WT, untreated
[2] = confocal immunofluorescence, GFP and surface anti-hGLP-1R; settings: glycan lost; control: SP-VSVG WT, untreated
[3] = total lysate immunoblot, anti-GFP; settings: glycan lost; control: SP-VSVG WT

Protein | localisation_or_trafficking, percent_of_wt [1] | localisation_or_trafficking [2] | expression_or_secretion [3]
B1 | abolishes | abolishes | no change
B2 | abolishes | abolishes | 
